Assay [1] concerns the target non-targeted IgG-IL2 (interleukin-2 fused to the C-terminus of a heavy chain of a germline antibody, which is not binding to a target). The assay is described as follows: bridging ELISA, IgG-IL2-Bi and -Dig, binder 125 ng/mL assay / 2500 ng/mL matrix. In general terms: ELISA stands for enzyme-linked immunosorbent assay.
Assay [2] has the same target. Briefly: bridging ELISA, IgG-IL2-Bi and -Dig, binder 1.0 ng/mL assay / 20 ng/mL matrix.
For assay [3] the target is unchanged. Briefly: bridging ELISA, drug-Bi and drug-Dig, human pooled serum, binder 63 ng/mL assay / 1250 ng/mL matrix.
For assay [4], the target named is TCB (T-cell bispecific format) drug antibody. The description is as above.
The target in assay [5] is targeted IgG-IL2 (interleukin-2 fused to the C-terminus of a heavy chain of an antibody specifically binding to a therapeutic target). The assay is described as above.
For assay [6], the target named is non-targeted IgG-IL2 (interleukin-2 fused to the C-terminus of a heavy chain of a germline antibody, which is not binding to a target). The assay is described as follows: bridging ELISA, IgG-IL2-Bi and -Dig, binder 0.1 ng/mL assay / 2.4 ng/mL matrix.
The target is the same in assay [7]. The assay is described as follows: bridging ELISA, drug-Bi and drug-Dig, human pooled serum, binder 16 ng/mL assay / 312.5 ng/mL matrix.
The target in assay [8] is TCB (T-cell bispecific format) drug antibody. Described as above.
Assay [9] deals with targeted IgG-IL2 (interleukin-2 fused to the C-terminus of a heavy chain of an antibody specifically binding to a therapeutic target). Described as above.
The target in assay [10] is non-targeted IgG-IL2 (interleukin-2 fused to the C-terminus of a heavy chain of a germline antibody, which is not binding to a target). The assay is described as follows: bridging ELISA, IgG-IL2-Bi and -Dig, binder 16 ng/mL assay / 313 ng/mL matrix.
Assay [11] shares this target. The assay is described as follows: bridging ELISA, IgG-IL2-Bi and -Dig, binder 2.0 ng/mL assay / 39 ng/mL matrix.
For assay [12] the target is unchanged. The assay is described as follows: bridging ELISA, drug-Bi and drug-Dig, human pooled serum, binder 125 ng/mL assay / 2500 ng/mL matrix.
Assay [13] addresses TCB (T-cell bispecific format) drug antibody. The assay is described as above.
Assay [14] addresses targeted IgG-IL2 (interleukin-2 fused to the C-terminus of a heavy chain of an antibody specifically binding to a therapeutic target). The description is as above.

B1: multivalent anti-PG antibody derived from clone 1.7.24 (mixed Pool 2, 3, 4) (antibody, V domains shown)
VH: EVKLLESGGGLVQPGGSLKLSCAASGFDFSRYWMNWVRQAPGKGLEWIGEITPDSSTINYTPSLKDKFIISRDNAKNTLYLQMIKVRSEDTALYYCVRPYDYGAWFASWGQGTLVTVSA
VL: QAVVTQESALTTSPGETVTLTCRSSTGAVTTSNYANWVQEKPDHLFTGLIGGTNKRAPGVPARFSGSLIGDKAALTITGAQTEDEAIYFCALWYSNHWVFGGGTKLTVL
modifications: lysine amines derivatised with SATP or MHS and cross-linked (sites not given)
As to B1, the signal [AU] is 3.08 AU in assay [1]; 0.114 AU in assay [2]; 0.77 AU in assay [3]; 2.86 AU in assay [4]; 2.63 AU in assay [5]; 0.058 AU in assay [6]. The signal [AU] was 0.23 AU in assay [7]; 1.19 AU in assay [8]; 0.894 AU in assay [9]; 0.996 AU in assay [10]; 0.165 AU in assay [11]; 1.4 AU in assay [12]. For the same molecule, the signal [AU] in [13] and in assay [14] was 3.05 AU throughout.

Values taken from US20240410900A1.
